Data published in the supplement of paper PMC10899765.

Key:
Settings in all cases: 20 nM; 72 h
MCF10A [1] = test: percent viability (nuclei count relative to siNT); higher = more viable cells
Procedure: (§1)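 After 72 h, cells were fixed and stained with Hoechst and anti-fibrillarin, and nucleoli per nucleus were counted with CellProfiler. Values are plate-adjusted percent effect for the one-nucleolus and 5+ nucleoli phenotypes, normalised to siNT (0%) and to the positive controls siNOL11 or siKIF11 (100%), as the mean of biological triplicates. Percent viability is the nuclei count relative to siNT.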

MCF10A [2] = test: 5+ nucleoli phenotype percent effect (relative to siNT 0% and siKIF11 100%); higher = more cells with five or more nucleoli
Procedure: as §1

MCF10A [3] = test: one-nucleolus phenotype percent effect (relative to siNT 0% and siNOL11 100%); higher = more cells with one nucleolus (ribosome biogenesis inhibition)
Procedure: as §1

In the case of “CUUCCAGACGCUCCGCCCCACGUCG [hsa-miR-3180-5p]”, the percent viability (MCF10A [1]) is reported as 67.4%, the “5+ nucleoli phenotype percent effect” value (MCF10A [2]) is reported as 28.4% and the “one-nucleolus phenotype percent effect” value (MCF10A [3]) is reported as -9.39%.

“CUUCCCCCCAGUAAUCUUCAUC [hsa-miR-3679-3p]” was tested, and the percent viability (MCF10A [1]) was 88.6%, the “5+ nucleoli phenotype percent effect” value (MCF10A [2]) was -16.6% and the “one-nucleolus phenotype percent effect” value (MCF10A [3]) was 4.01%.

For CUUCCGCCCCGCCGGGCGUCG [hsa-miR-718], the percent viability (MCF10A [1]) was 69%, the “5+ nucleoli phenotype percent effect” value (MCF10A [2]) was 30.6% and the “one-nucleolus phenotype percent effect” value (MCF10A [3]) was -13.8%.

For “CUUCCGGUCUGUGAGCCCCGUC [hsa-miR-4664-3p]”, the percent viability (MCF10A [1]) was 36.8%, the “5+ nucleoli phenotype percent effect” value (MCF10A [2]) was -1.01% and the “one-nucleolus phenotype percent effect” value (MCF10A [3]) was 14.5%.

For CUUCCUCGUCUGUCUGCCCC [hsa-miR-1238-3p], the percent viability (MCF10A [1]) was 74.5%, the “5+ nucleoli phenotype percent effect” value (MCF10A [2]) was -4.82% and the “one-nucleolus phenotype percent effect” value (MCF10A [3]) was 13.2%.

In the case of CUUCUCUUCUCUCCUUCCCAG [hsa-miR-6809-3p], the percent viability (MCF10A [1]) is reported as 31%, the “5+ nucleoli phenotype percent effect” value (MCF10A [2]) is reported as -23.7% and the “one-nucleolus phenotype percent effect” value (MCF10A [3]) is reported as 17.9%.

In the case of “CUUCUGAUCAAGAUUUGUGGUG [hsa-miR-4762-3p]”, the percent viability (MCF10A [1]) is reported as 30.5%, the “5+ nucleoli phenotype percent effect” value (MCF10A [2]) is reported as -38.7% and the “one-nucleolus phenotype percent effect” value (MCF10A [3]) is reported as 18.9%.

With “CUUCUGCCUGCAUUCUACUCCCAG [hsa-miR-6738-3p]” the percent viability (MCF10A [1]) was 51.1%, the “5+ nucleoli phenotype percent effect” value (MCF10A [2]) was -13.9% and the “one-nucleolus phenotype percent effect” value (MCF10A [3]) was 12.5%.

CUUCUUGUGCUCUAGGAUUGU [hsa-miR-578] was tested, and the percent viability (MCF10A [1]) was 32.6%, the “5+ nucleoli phenotype percent effect” value (MCF10A [2]) was -13.1% and the “one-nucleolus phenotype percent effect” value (MCF10A [3]) was 19.6%.

For CUUGAGUCGUGCCUUUCUGAAUG [hsa-miR-8081], the percent viability (MCF10A [1]) was 95.5%, the “5+ nucleoli phenotype percent effect” value (MCF10A [2]) was -17.9% and the “one-nucleolus phenotype percent effect” value (MCF10A [3]) was 14%.

In the case of “CUUGCCAUCCUGGUCCACUGCAU [hsa-miR-4776-3p]”, the percent viability (MCF10A [1]) is reported as 20.6%, the “5+ nucleoli phenotype percent effect” value (MCF10A [2]) is reported as -38.5% and the “one-nucleolus phenotype percent effect” value (MCF10A [3]) is reported as 25.4%.

With “CUUGGAUUUUCCUGGGCCUCAG [hsa-miR-5004-3p]” the percent viability (MCF10A [1]) was 51.4%, the “5+ nucleoli phenotype percent effect” value (MCF10A [2]) was -12% and the “one-nucleolus phenotype percent effect” value (MCF10A [3]) was 4.88%.

With “CUUGGCACCUAGCAAGCACUCA [hsa-miR-1271-5p]” the percent viability (MCF10A [1]) was 91.1%, the “5+ nucleoli phenotype percent effect” value (MCF10A [2]) was 68.8% and the “one-nucleolus phenotype percent effect” value (MCF10A [3]) was -2.87%.

CUUGGGAGCCCUGUUAGACUC [hsa-miR-887-5p] was tested, and the percent viability (MCF10A [1]) was 176%, the “5+ nucleoli phenotype percent effect” value (MCF10A [2]) was 76% and the “one-nucleolus phenotype percent effect” value (MCF10A [3]) was -32.3%.

In the case of CUUGGGGCAUGGAGUCCCA [hsa-miR-4260], the percent viability (MCF10A [1]) is reported as 37.7%, the “5+ nucleoli phenotype percent effect” value (MCF10A [2]) is reported as 9.54% and the “one-nucleolus phenotype percent effect” value (MCF10A [3]) is reported as -6.43%.

With CUUGGUUCAGGGAGGGUCCCCA [hsa-miR-659-3p] the percent viability (MCF10A [1]) was 34.6%, the “5+ nucleoli phenotype percent effect” value (MCF10A [2]) was -6.48% and the “one-nucleolus phenotype percent effect” value (MCF10A [3]) was 37.6%.

CUUUCAGUCAGAUGUUUGCUGC [hsa-miR-30d-3p] was tested, and the percent viability (MCF10A [1]) was 131%, the “5+ nucleoli phenotype percent effect” value (MCF10A [2]) was 59.2% and the “one-nucleolus phenotype percent effect” value (MCF10A [3]) was -17.5%.

In the case of CUUUCAGUCGGAUGUUUACAGC [hsa-miR-30e-3p], the percent viability (MCF10A [1]) is reported as 126%, the “5+ nucleoli phenotype percent effect” value (MCF10A [2]) is reported as 14.5% and the “one-nucleolus phenotype percent effect” value (MCF10A [3]) is reported as -11.8%.

In the case of CUUUCAGUCGGAUGUUUGCAGC [hsa-miR-30a-3p], the percent viability (MCF10A [1]) is reported as 86.1%, the “5+ nucleoli phenotype percent effect” value (MCF10A [2]) is reported as -31% and the “one-nucleolus phenotype percent effect” value (MCF10A [3]) is reported as 1.29%.

For CUUUGAGCACAUGAGCAGACGGA [hsa-miR-8055], the percent viability (MCF10A [1]) was 92.5%, the “5+ nucleoli phenotype percent effect” value (MCF10A [2]) was -14.2% and the “one-nucleolus phenotype percent effect” value (MCF10A [3]) was -6.93%.

CUUUGCUUCCUGCUCCCCUAG [hsa-miR-6885-3p] was tested, and the percent viability (MCF10A [1]) was 41.6%, the “5+ nucleoli phenotype percent effect” value (MCF10A [2]) was -17.3% and the “one-nucleolus phenotype percent effect” value (MCF10A [3]) was -5.84%.

CUUUUUGCGGUCUGGGCUUGC [hsa-miR-129-5p] was tested, and the percent viability (MCF10A [1]) was 39.8%, the “5+ nucleoli phenotype percent effect” value (MCF10A [2]) was -6.61% and the “one-nucleolus phenotype percent effect” value (MCF10A [3]) was 8.91%.

GAAAACGACAAUGACUUUUGCA [hsa-miR-548ad] was tested, and the percent viability (MCF10A [1]) was 129%, the “5+ nucleoli phenotype percent effect” value (MCF10A [2]) was 40.5% and the “one-nucleolus phenotype percent effect” value (MCF10A [3]) was -29.2%.

With “GAAAAUCCUUUUUGUUUUUCCAG [hsa-miR-4668-3p]” the percent viability (MCF10A [1]) was 72.8%, the “5+ nucleoli phenotype percent effect” value (MCF10A [2]) was 28.5% and the “one-nucleolus phenotype percent effect” value (MCF10A [3]) was -14.6%.

For GAAAAUGAUGAGUAGUGACUGAUG [hsa-miR-3662], the percent viability (MCF10A [1]) was 88.3%, the “5+ nucleoli phenotype percent effect” value (MCF10A [2]) was 57.8% and the “one-nucleolus phenotype percent effect” value (MCF10A [3]) was -17.5%.

With GAAAGAGAGCUGAGUGUG [hsa-miR-4311] the percent viability (MCF10A [1]) was 26.3%, the “5+ nucleoli phenotype percent effect” value (MCF10A [2]) was -27.3% and the “one-nucleolus phenotype percent effect” value (MCF10A [3]) was 31.2%.

With “GAAAGCGCUUCCCUUUGCUGGA [hsa-miR-518a-3p]” the percent viability (MCF10A [1]) was 59.1%, the “5+ nucleoli phenotype percent effect” value (MCF10A [2]) was -15.5% and the “one-nucleolus phenotype percent effect” value (MCF10A [3]) was 17.4%.

With GAAAGCGCUUCUCUUUAGAGG [hsa-miR-518f-3p] the percent viability (MCF10A [1]) was 63.6%, the “5+ nucleoli phenotype percent effect” value (MCF10A [2]) was -8.13% and the “one-nucleolus phenotype percent effect” value (MCF10A [3]) was 17.1%.

With “GAAAGUAAUUGCUGUUUUUGCC [hsa-miR-548aq-5p]” the percent viability (MCF10A [1]) was 118%, the “5+ nucleoli phenotype percent effect” value (MCF10A [2]) was 16.5% and the “one-nucleolus phenotype percent effect” value (MCF10A [3]) was -13.4%.

With GAAAGUACAGAUCGGAUGGGU [hsa-miR-8054] the percent viability (MCF10A [1]) was 55.8%, the “5+ nucleoli phenotype percent effect” value (MCF10A [2]) was 24.3% and the “one-nucleolus phenotype percent effect” value (MCF10A [3]) was -3.34%.
